Experiment [1] concerns the target SARS-CoV-2 spike (S) protein, WA1 (SARS-CoV-2) (UniProt P0DTC2). Kind of experiment: cell-based or functional assay.
Experiment [2] deals with SARS-CoV-2 WA1 spike (S) protein (SARS-CoV-2) (UniProt P0DTC2). Kind of experiment: cell-based or functional assay.

In experiment [1], ADG20 (antibody) registered a neutralization IC50 of 0.047 nM and a neutralization IC80 of 0.197 nM.

Turning to AZD3152 (antibody), the pseudovirus neutralization IC50 in experiment [2] amounted to 0.161 µg/mL. In experiment [1], this substance gave an IC50, pseudovirus neutralization of 1.08 nM and an IC80, pseudovirus neutralization of 2.2 nM.

The record behind these values is patent US20250326823A1.
